± gives the uncertainty stated by the source.
Assay: self-splicing fitness, log relative to wild type (ln ratio); higher = more splicing; Tetrahymena group I intron in knt gene, E. coli kanamycin selection, DiMSum; sequences stand for … in CUCUCU…GGAGGGAAAAGUUAUCAGGCAUGCACCUGGUAGCUAGUCUUUAAACCAAUAGAUUGCAUCGGUUUAAAAGGCAAGACCGUCAAAUUGCGGGAAAGGGGUCAACAGCCGUUCAGUACCAAGUCUCAGGGGAAACUUUGAGAUGGCCUUGCAAAGGGUAUGGUAAUAAGCUGACGGACAUGGUCCUAACCACGCAGCCAAGUCCUAAGUCAACAGAUCUUCUGUUGAUAUGGAUGCAGUUCACAGACUAAAUGUCGGUCGGGGAAGAUGUAUUCUUCUCAUAAGAUAUAGUCGGACCUCUCCUUAAUGGGAGCUAGCGGAUGAAGUGAUGCAACACUGGAGCCGCUGGGAACUAAUUUGUAUGCGAAAGUAUAUUGAUUAGUUUUGGAGUACUCGUGGUCG
Outline: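 The eight P1ex-region nucleotides of an intron in the knt kanamycin-resistance gene on pET-22b(+) were all randomised and the library put into E. coli BL21(DE3). Six replicate transformations were grown overnight at 37°C or 30°C on LB agar with or without 25 μg/mL kanamycin, together with 100 μg/mL carbenicillin, 50 μM IPTG and 0.2% rhamnose. Colonies were pooled and amplicon-sequenced on an Illumina HiSeq 2500. Fitness from DiMSum is the error-weighted combination of wild-type-normalised replicate fold changes, kanamycin over none.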

Sequence | self-splicing fitness (ln) (30 °C) | self-splicing fitness (ln) (37 °C)
GAUAAGCAAUAUUACGGUGG | -2.85 ± 0.23 | -2.24 ± 0.2
AGGCAGCAAUAUUACGCAGG | -1.39 ± 0.084 | -1.17 ± 0.1
CGCGAGCAAUAUUACGUCUU | -2.32 ± 0.2 | -2.05 ± 0.24
CCACAGCAAUAUUACGACCC | -4.02 ± 0.39 | 
GCUUAGCAAUAUUACGCUUG | -2.53 ± 0.27 | -1.74 ± 0.36
CUCAAGCAAUAUUACGACUU | -2.2 ± 0.18 | 
CCCAAGCAAUAUUACGAUGG | -2.89 ± 0.13 | -1.99 ± 0.13
CUCCAGCAAUAUUACGUUAG | -2.15 ± 0.094 | -1.51 ± 0.12
UAUCAGCAAUAUUACGACCC | -1.87 ± 0.15 | -1.71 ± 0.18
AUUCAGCAAUAUUACGUAAC | -0.841 ± 0.17 | 1.08 ± 0.19
CCCAAGCAAUAUUACGGCAU | -3.63 ± 0.16 | -2.84 ± 0.17
GCUGAGCAAUAUUACGGAGU |  | -2.38 ± 0.31
UCAGAGCAAUAUUACGGGGC | -3.3 ± 0.26 | -2.42 ± 0.41
UGGCAGCAAUAUUACGUCGG | -0.425 ± 0.097 | -0.268 ± 0.13
UGCUAGCAAUAUUACGAACG | -0.171 ± 0.097 | 0.803 ± 0.12
GGGUAGCAAUAUUACGGGUC | -2.32 ± 0.17 | -1.1 ± 0.18
AUGCAGCAAUAUUACGGCGA | -0.313 ± 0.1 | 0.239 ± 0.13
AUAGAGCAAUAUUACGGUAG | -3.5 ± 0.16 | -1.38 ± 0.13
UAUCAGCAAUAUUACGCUUU | -1.48 ± 0.086 | -0.159 ± 0.098
AUCUAGCAAUAUUACGCAGC | -2.64 ± 0.35 | -2.06 ± 0.31
AUUAAGCAAUAUUACGUCAG | -3.01 ± 0.24 | -1.85 ± 0.21
ACUUAGCAAUAUUACGGGGU | -2.71 ± 0.16 | -2.73 ± 0.27
CAGAAGCAAUAUUACGCGCA | -1.55 ± 0.17 | -0.337 ± 0.12
UUUUAGCAAUAUUACGCGCA | -0.13 ± 0.11 | -0.0853 ± 0.12
CUUGAGCAAUAUUACGCAGA | -1.11 ± 0.26 | -1.91 ± 0.3

Sequence | self-splicing fitness (ln) (30 °C) | self-splicing fitness (ln) (37 °C)
CCCAAGCAAUAUUACGAUCG | -3.46 ± 0.19 | -2.93 ± 0.19
CUUGAGCAAUAUUACGCCCU |  | -2.21 ± 0.46
GCUUAGCAAUAUUACGAUCA | -1.1 ± 0.14 | -0.788 ± 0.16
CGGAAGCAAUAUUACGGUGG | -0.759 ± 0.099 | -0.586 ± 0.1
CCGCAGCAAUAUUACGACCA | -3.34 ± 0.25 | -1.95 ± 0.25
CAUCAGCAAUAUUACGGAAG | -0.623 ± 0.054 | -0.416 ± 0.069
ACUCAGCAAUAUUACGAGGA | -1.67 ± 0.11 | -0.591 ± 0.095
AGAUAGCAAUAUUACGAGCG | -0.464 ± 0.12 | -1.08 ± 0.15
GGAAAGCAAUAUUACGAGUA | -2.38 ± 0.22 | -0.9 ± 0.19
GAACAGCAAUAUUACGCAUC | -2.79 ± 0.095 | -2.01 ± 0.12
UGGGAGCAAUAUUACGGCUG | -1.09 ± 0.19 | -2.31 ± 0.26
CGUGAGCAAUAUUACGUAAG | -0.896 ± 0.1 | -1.14 ± 0.15
CGUAAGCAAUAUUACGCGAA | -3.5 ± 0.24 | -3.88 ± 0.39
AGGUAGCAAUAUUACGCUUA | -1.2 ± 0.017 | -0.467 ± 0.034
AGCAAGCAAUAUUACGGCUA | -1.07 ± 0.088 | -0.869 ± 0.093
GUACAGCAAUAUUACGCAAC | -2.08 ± 0.18 | -0.557 ± 0.17
GGGUAGCAAUAUUACGUGAG | -0.474 ± 0.074 | 0.074 ± 0.11
GGAAAGCAAUAUUACGUCAA | -1.7 ± 0.19 | -0.985 ± 0.18
GUGAAGCAAUAUUACGGCGG | -1.24 ± 0.13 | -1.26 ± 0.14
CAGGAGCAAUAUUACGCUUG | -3.59 ± 0.21 | -2.48 ± 0.3
CCAGAGCAAUAUUACGGAUG | -2.56 ± 0.15 | -1.3 ± 0.18
UAUUAGCAAUAUUACGCGUC | -4.05 ± 0.35 | -2.57 ± 0.26
AAAAAGCAAUAUUACGCGGA | -1.95 ± 0.11 | -0.504 ± 0.11
ACCAAGCAAUAUUACGCUAA | -3.3 ± 0.16 | -2.33 ± 0.14
CCCCAGCAAUAUUACGUAAG | -3.18 ± 0.12 | -1.33 ± 0.12

Sequence | self-splicing fitness (ln) (30 °C) | self-splicing fitness (ln) (37 °C)
CUAAAGCAAUAUUACGGACU | -3.93 ± 0.25 | -1.9 ± 0.27
CCGGAGCAAUAUUACGGACU |  | -1.56 ± 0.28
AGGGAGCAAUAUUACGCGGU | -3.98 ± 0.21 | -3.05 ± 0.24
UGUGAGCAAUAUUACGAACG | -0.83 ± 0.075 | 0.261 ± 0.086
GCUGAGCAAUAUUACGUCGC | -2.96 ± 0.26 | -2.17 ± 0.24
GAUCAGCAAUAUUACGAUAU | -0.637 ± 0.08 | 0.658 ± 0.11
UACAAGCAAUAUUACGAGAA | -2.1 ± 0.29 | -2.42 ± 0.33
UUUAAGCAAUAUUACGCUUU | -3.6 ± 0.35 | -2.95 ± 0.23
CUCUAGCAAUAUUACGGCGU | -3.56 ± 0.27 | -2.83 ± 0.24
UCAUAGCAAUAUUACGAAGA | -2.06 ± 0.36 | -1.56 ± 0.38
CUGCAGCAAUAUUACGAUUG | -0.725 ± 0.06 | -0.488 ± 0.074
GGGAAGCAAUAUUACGUCUG | 0.292 ± 0.099 | -0.174 ± 0.12
ACUGAGCAAUAUUACGUAUC |  | -2.99 ± 0.44
UAUCAGCAAUAUUACGAAUA | -0.934 ± 0.18 | -0.486 ± 0.11
CUACAGCAAUAUUACGCUCU | -4.15 ± 0.25 | -2.74 ± 0.29
GGCAAGCAAUAUUACGCGAG | -2.32 ± 0.14 | -3.34 ± 0.24
CUGGAGCAAUAUUACGACAG | -4.83 ± 0.31 | -2.42 ± 0.49
GAAAAGCAAUAUUACGCAGC | -2.9 ± 0.17 | -1.74 ± 0.19
GGUUAGCAAUAUUACGUGAG | -0.894 ± 0.098 | -0.197 ± 0.12
ACACAGCAAUAUUACGUACU | -0.335 ± 0.05 | 0.175 ± 0.065
AAACAGCAAUAUUACGUCUC | -3.42 ± 0.15 | -2.31 ± 0.16
UUACAGCAAUAUUACGGGGG | -2.2 ± 0.14 | -1.77 ± 0.15
ACAUAGCAAUAUUACGAGGC | -4.03 ± 0.36 | -2.2 ± 0.32
UGGCAGCAAUAUUACGACAG | -1.02 ± 0.087 | 0.224 ± 0.11
UCCCAGCAAUAUUACGUGGA | -3.08 ± 0.14 | -1.95 ± 0.15

Sequence | self-splicing fitness (ln) (30 °C) | self-splicing fitness (ln) (37 °C)
UUAGAGCAAUAUUACGAUCC | -2.97 ± 0.41 | 
AAGGAGCAAUAUUACGCCAA | -4.19 ± 0.46 | -3.11 ± 0.3
CGAUAGCAAUAUUACGCCGG | -0.546 ± 0.11 | -0.0292 ± 0.14
ACCGAGCAAUAUUACGUAUC |  | -2.59 ± 0.25
AUAAAGCAAUAUUACGUUAU | -0.793 ± 0.064 | -0.4 ± 0.11
AGAAAGCAAUAUUACGGGUA | -1.32 ± 0.092 | -1.01 ± 0.095
CAGAAGCAAUAUUACGUCGU | -4.88 ± 0.36 | -1.3 ± 0.14
CCCUAGCAAUAUUACGACGG | -2.7 ± 0.14 | -2.87 ± 0.34
GUGAAGCAAUAUUACGCAAU | -0.705 ± 0.088 | -0.623 ± 0.12
CGGCAGCAAUAUUACGCACU | -1.45 ± 0.086 | -0.361 ± 0.1
AGGCAGCAAUAUUACGAGUA | -1.94 ± 0.15 | -1.65 ± 0.14
UGGAAGCAAUAUUACGUCUA | -0.281 ± 0.15 | -0.741 ± 0.18
ACCUAGCAAUAUUACGCCUG | -2.69 ± 0.19 | -1.66 ± 0.22
GCUCAGCAAUAUUACGGUCA | -1.12 ± 0.09 | -0.085 ± 0.082
CCUAAGCAAUAUUACGAUCG | -0.805 ± 0.15 | -0.185 ± 0.17
CCAAAGCAAUAUUACGCGAC | -4.37 ± 0.27 | -2.87 ± 0.21
UUAAAGCAAUAUUACGGGAG | -1.34 ± 0.08 | -0.293 ± 0.12
AUCCAGCAAUAUUACGAACG | -0.746 ± 0.08 | -0.625 ± 0.12
CUAAAGCAAUAUUACGAGUU | -2.84 ± 0.32 | -1.85 ± 0.26
AGUUAGCAAUAUUACGAGGG | -4.11 ± 0.38 | -2.06 ± 0.33
UACGAGCAAUAUUACGUUCG | -3.48 ± 0.25 | -2.76 ± 0.25
AGCUAGCAAUAUUACGUAAU | -3.29 ± 0.16 | -0.924 ± 0.11
